Experimental data reported in patent US12558403B2, “Anti-tumor fusion protein, preparation method therefor and application thereof” (GUANGDONG TAIHE MEDICINE SCIENCE & TECHNOLOGY CO., LTD, priority 2020, dated 2026).
Marks after values point to notes of the source that are not given here.

Tests used:
lung cancer cells H460 = assay: Killing of tumor cells by stimulated T cells, CytoTox 96 non-radioactive cytotoxicity assay; conditions: T cells stimulated with 40 μg/mL for 4 days, effector-target ratio 20:1
Experimental: CytoTox 96 non-radioactive cytotoxicity assay was used to detect the killing effect of L1, L2, D1 and D2 polypeptides (40 μg/mL) on lung cancer cells H460 after stimulating human T lymphocytes for 4 days, respectively.

[1] = test system: breast cancer cell line MDA-MB-231; assay: as above; type: cell-based, human; conditions: effector-target ratio 30:1
Experimental: (§1) Three protein concentrations (20 μg/mL, 40 μg/mL, 80 μg/mL) of TAT-SHP2-N-SH2 fusion protein were selected to stimulate human T lymphocytes and the killing effect on tumor cells MDA-MB-231 and SW480, respectively at an effector-target ratio of 30:1 was detected by CytoTox 96 non-radioactive cytotoxicity assay.

[2] = test system: colon cancer cell line SW480; assay: as above; type: cell-based, human; conditions: effector-target ratio 30:1
Experimental: as §1

PD-L1-KO-EMT6 = assay: PD-L1 knockout EMT-6 breast cancer xenografts in BALB/c mice; type: in vivo
Text: Tumor weight of mice after 23 d dissection; b. Tumor size; c. Tumor growth curve; Unpaired t-test, compared with control group, *P<0.05, **P<0.01, ***P<0.001.
Recombinant TAT-N-SH2 fusion protein and L1 (TAT-SHP2-C-SH2) polypeptide target the ITIM motif of inhibitory receptors. […] To this end, we constructed a breast cancer EMT-6 cell line stably knocked out PD-L1 (PD-L1-KO-EMT6), inoculated into the mouse mammary fat pad, and the recombinant TAT-N-SH2 fusion protein (N5) and TAT-SHP2-C-SH2 polypeptide (C5) were administered by intraperitoneal injection at 5 μg/mouse, respectively and at the same time, a dose of 50 μg/mouse αPD-1 antibody (αPD-1) was used as the control drug.

MDA-MB-231 = assay: Direct killing of tumor cells, zenCell owl live cell imaging; type: cell-based; conditions: 20, 40, 80 μg/mL, no T cells
Experimental: (§2) In order to detect whether the recombinant TAT-N-SH2 fusion protein and L1 polypeptide have direct killing effect on tumor cells, we co-cultured different concentrations (20 μg/mL, 40 μg/mL, 80 μg/mL) of recombinant TAT-N-SH2 fusion protein and L1 polypeptide with tumor cells MDA-MB-231 and SW480, and applied zenCell owl live cell dynamic imaging analysis system to observe its effect on tumor cells in real time.

SW480 = assay: as above; type: cell-based; conditions: 20, 40, 80 μg/mL, no T cells
Experimental: as §2

MC38 colon cancer [3] = assay: MC38 colon cancer mouse subcutaneous tumor-bearing model; type: in vivo, mice
Text: A subcutaneous tumor model of MC38 colon cancer mice was established.

EMT-6 breast cancer = EMT-6 breast cancer in immune-deficient nude mice; type: in vivo; conditions: groups C5/N5, once every other day, 8 doses
Text: Tumor weight of mice after 21 d dissection; b. Tumor size; c. Tumor growth curve; NS: no statistical difference.
At the same time, we selected immune-deficient nude mice to inoculate EMT-6 breast cancer tumors. After 5 days of tumor formation, they were randomly divided into three groups with 6 mice in each group. Start the administration, the administration dose is the same as above, administered once every other day for a total of 8 doses, 4 days to measure tumor size, the growth curve was drawn, and the mice were sacrificed to measure the body weight on day 21.

MC38 colon cancer [4] = assay: MC38 colon cancer in immunodeficient nude mice; type: in vivo
Text: Tumor weight of mice after 30 d dissection; b. Tumor size; c. Tumor growth curve; Unpaired t-test, compared with control group, NS: no statistical difference.
In order to exclude the direct inhibitory effect of recombinant TAT-N-SH2 fusion protein and L1 (TAT-SHP2-C-SH2) polypeptide on tumors, we selected immunodeficient nude mice to inoculate MC38 colon cancer tumors, and started administration 14 days after tumor formation, 4 days to measure the tumor volume, after 30 days, the mice were sacrificed for dissection, and the tumor weight was measured.

T lymphocytes [5] = assay: T lymphocyte proliferation detected by CFSE; type: cell-based; conditions: 80 μg/mL, 3 days, control group 62.83%
Experimental: Compared with the control group, p>0.05 has no statistical significance.
To test whether recombinant TAT-N-SH2 fusion protein and L1 (TAT-SHP2-C-SH2) polypeptide can enhance the proliferation of T lymphocytes, we used 80 μg/mL TAT-SHP2-N-SH2 fusion protein and TAT-SHP2-C-SH2 polypeptide to stimulate T lymphocytes for 3 days, respectively, the proliferation of T lymphocytes was detected by CFSE.

ERK, AKT and JNK = assay: Phosphorylation of ERK, AKT and JNK in T lymphocytes, Western-blot; type: cell-based; conditions: T lymphocytes stimulated 3 days, compared with untreated group
Experimental: TAT-SHP2-N-SH2 fusion protein treatment group; c. TAT-SHP2 C-SH2 polypeptide treatment group; b, d. According to Western-blot results, with β-actin as an internal reference, grayscale analysis of the phosphorylation expression of JNK, AKT and ERK proteins mediated by T lymphocytes is performed. Unpaired t-test, compared with negative control, **p<0.01, NS has no statistical difference.
The T lymphocytes stimulated by recombinant TAT-N-SH2 fusion protein and L1 (TAT-SHP2-C-SH2) polypeptide for 3 days were collected to detect the changes in the phosphorylation levels of ERK, AKT and JNK molecules.

EMT breast cancer = EMT breast cancer mouse subcutaneous tumor-bearing model; type: in vivo, mice
Experimental: Tumor weight of mice in different administration groups after 21 d dissection; b. Tumor size; Unpaired t-test, compared with control group, *p<0.05, **p<0.01, ***p<0.001.
We further evaluated the effects of TAT-SHP2SHP2-N-SH2 fusion protein and TAT-SHP2SHP2-C-SH2 polypeptide on tumor growth in mice by establishing a subcutaneous tumor-bearing model of EMT breast cancer mice. We used TAT-SHP2SHP2-C-SH2 polypeptide at 5 μg/mouse (C5), 10 μg/mouse (C10), 15 μg/mouse (C15) and 2 μg/mouse (N2), 5 μg/mouse (N5), 10 μg/mouse (N10), 15 μg/mouse (N15) of TAT-SHP2SHP2-N-SH2 fusion protein were administered by intraperitoneal injection and at the same time, the dose of 50 μg/mouse αPD-1 antibody (αPD-1) was used as the positive control drug.

IL-2 = assay: Cytokine IL-2 secreted by T lymphocytes; type: cell-based; conditions: T lymphocytes stimulated 3 days, compared with control group
Text: The T lymphocytes stimulated by recombinant TAT-N-SH2 fusion protein and L1 polypeptide for 3 days were collected to detect the level of cytokine IL-2 secreted.

T lymphocytes [6] = assay: T lymphocyte apoptosis, Annexin V-FITC/PI flow cytometry; type: cell-based; conditions: 80 μg/mL, 3 days, PD-L1 coated plate, compared with control group
Experimental: The resuspended cells are added to different groups to treat untreated groups SHP2-NC, SHP2-N-SH2 (80 μg/mL), TAT-SHP2-C-SH2 polypeptide (80 μg/mL), and then continues to culture on EASY-T stimulated plates for 3 d (50 ng of PD-L1 antibody is added 3 hours before adding the cell mixture to coat a 24-well plate at 37° C.), and the cells are collected, detection by flow cytometry after FITC and PI staining; e According to the results of flow cytometry, the proportion of apoptotic cells is counted, compared with the control group, *p<0.05 or **p<0.01.
T lymphocytes were stimulated with recombinant TAT-N-SH2 fusion protein and L1 polypeptide for 3 days and the apoptosis of T lymphocytes in different treatment groups was detected by flow cytometry. […] FIG. 13e, according to the results of flow cytometry, the proportion of apoptotic cells was counted, compared with the control group, *p<0.05 or **p<0.01.

[7] = T cells stimulated with 20 μg/ml
[8] = T cells stimulated with 40 μg/ml
[9] = T cells stimulated with 80 μg/ml
[10] = Table 4, 1.25 μg/mouse intraperitoneal, 8 administrations
[11] = Table 4, 2.5 μg/mouse intraperitoneal, 8 administrations
[12] = Table 4, 5 μg/mouse intraperitoneal, 8 administrations
[13] = Table 4, 10 μg/mouse intraperitoneal, 8 administrations
[14] = Table 5, 5 μg/mouse intraperitoneal

CC(C)C[C@H](NC(=O)[C@@H](NC(=O)[C@H](Cc1ccccc1)NC(=O)[C@H](CC(=O)O)NC(=O)CNC(=O)[C@@H]1CCCN1C(=O)[C@H](Cc1c[nH]cn1)NC(=O)[C@H](CO)NC(=O)[C@H](CCC(N)=O)NC(=O)[C@H](CO)NC(=O)[C@H](CCC(=O)O)NC(=O)[C@H](CCCNC(=N)N)NC(=O)[C@@H](NC(=O)[C@@H]1CCCN1C(=O)[C@@H]1CCCN1C(=O)[C@H](CCCNC(=N)N)NC(=O)[C@H](CCCNC(=N)N)NC(=O)[C@H](CCCNC(=N)N)NC(=O)[C@H](CCC(N)=O)NC(=O)[C@H](CCCNC(=N)N)NC(=O)[C@H](CCCNC(=N)N)NC(=O)[C@H](CCCCN)NC(=O)[C@H](CCCCN)NC(=O)[C@H](CCCNC(=N)N)NC(=O)CNC(=O)[C@@H](N)Cc1ccc(O)cc1)C(C)C)C(C)C)C(=O)O [L1, YGRKKRRQRRR-PP-VRESQSHPGDFVL]
Cytotoxicity (%) (lung cancer cells H460): 33.23 ± 2.32 % | Cytotoxicity (%) MDA-MB-231 [1, 7]: 5.933 ± 3.955^ns % | Cytotoxicity (%) MDA-MB-231 [1, 8]: 20.55 ± 1.157 % | Cytotoxicity (%) MDA-MB-231 [1, 9]: 34.8 ± 7.424 % | Cytotoxicity (%) SW480 [2, 7]: 20.24 ± 8.943^ns % | Cytotoxicity (%) SW480 [2, 8]: 31.38 ± 3.779 % | Cytotoxicity (%) SW480 [2, 9]: 40.19 ± 8.373 %

CC(C)C[C@@H](NC(=O)[C@H](NC(=O)[C@@H](Cc1ccccc1)NC(=O)[C@@H](CC(=O)O)NC(=O)CNC(=O)[C@H]1CCCN1C(=O)[C@@H](Cc1c[nH]cn1)NC(=O)[C@@H](CO)NC(=O)[C@@H](CCC(N)=O)NC(=O)[C@@H](CO)NC(=O)[C@@H](CCC(=O)O)NC(=O)[C@@H](CCCNC(=N)N)NC(=O)[C@H](NC(=O)[C@H]1CCCN1C(=O)[C@H]1CCCN1C(=O)[C@@H](CCCNC(=N)N)NC(=O)[C@@H](CCCNC(=N)N)NC(=O)[C@@H](CCCNC(=N)N)NC(=O)[C@@H](CCC(N)=O)NC(=O)[C@@H](CCCNC(=N)N)NC(=O)[C@@H](CCCNC(=N)N)NC(=O)[C@@H](CCCCN)NC(=O)[C@@H](CCCCN)NC(=O)[C@@H](CCCNC(=N)N)NC(=O)CNC(=O)[C@H](N)Cc1ccc(O)cc1)C(C)C)C(C)C)C(=O)O [D1]
Cytotoxicity (%) (lung cancer cells H460): 39.43 ± 1.31 %

B1: TAT-SHP2-N-SH2 fusion protein: TAT penetrating peptide connected to N-terminal SH2 domain of SHP2 through glycine and serine (TAT-Gly-Ser-N-SH2); SEQ ID NO.:4 (protein)
chain: YGRKKRRQRRRGSRWFHPNITGVEAENLLLTRGVDGSFLARPSKSNPGDFTLSVRRNGAVTHIKIQNTGDYYDLYGGEKFATLAELVQYYMEHHGQLKEKNGDVIELKYPLN
modifications: the fusion protein
Tumor inhibition rate % (PD-L1-KO-EMT6; 5 μg/mouse intraperitoneal): 60.5% | Tumor weight (g) (PD-L1-KO-EMT6; 5 μg/mouse intraperitoneal, dissection after 23 d): 0.34 ± 0.20** g | effect on growth of PD-L1-KO-EMT6 tumors (PD-L1-KO-EMT6; N5 and C5 5 μg/mouse, αPD-1 antibody 50 μg/mouse): significantly inhibit the growth of PD-L1-KO-EMT6 tumors | direct toxic effect on tumor cells (MDA-MB-231): no direct toxic effect | direct toxic effect on tumor cells (SW480): no direct toxic effect | Tumor inhibition rate % (MC38 colon cancer [3]; [10]): 55.3% | Tumor weight (MC38 colon cancer [3]; [10]): 0.36 ± 0.11 g | Tumor inhibition rate % (MC38 colon cancer [3]; [11]): 53.5% | Tumor weight (MC38 colon cancer [3]; [11]): 0.38 ± 0.11 g | Tumor inhibition rate % (MC38 colon cancer [3]; [12]): 80.9% | Tumor weight (MC38 colon cancer [3]; [12]): 0.16 ± 0.03 g | Tumor inhibition rate % (MC38 colon cancer [3]; [13]): 57.8% | Tumor weight (MC38 colon cancer [3]; [13]): 0.34 ± 0.08 g | Tumor inhibition rate % (MC38 colon cancer [3]; [14]): 77.1% | Tumor weight (MC38 colon cancer [3]; [14]): 0.26 ± 0.07 g | Tumor inhibition rate % (EMT-6 breast cancer): 8.3% | Tumor weight (g) (EMT-6 breast cancer; day 21): 0.82 ± 0.13^ns g | Tumor inhibition rate % (MC38 colon cancer [4]; groups C5/N5): 9.9% | Tumor weight (g) (MC38 colon cancer [4]; groups C5/N5, sacrificed after 30 days): 0.25 ± 0.06^ns g | proliferation rate of T lymphocytes (T lymphocytes [5]): 61.05% | phosphorylation levels of ERK, AKT and JNK (ERK, AKT and JNK): the expression levels of p-ERK and p-AKT in the TAT-SHP2-N-SH2 fusion protein stimulation group have the most obvious changes | Tumor inhibition rate % (EMT breast cancer; 2 μg/mouse intraperitoneal): 54.9% | Tumor weight (g) (EMT breast cancer; 2 μg/mouse intraperitoneal): 0.56 ± 0.11* g | Tumor inhibition rate % (EMT breast cancer; 5 μg/mouse intraperitoneal): 70.3% | Tumor weight (g) (EMT breast cancer; 5 μg/mouse intraperitoneal, dissection after 21 d): 0.37 ± 0.10** g | Tumor inhibition rate % (EMT breast cancer; 10 μg/mouse intraperitoneal): 63% | Tumor weight (g) (EMT breast cancer; 10 μg/mouse intraperitoneal): 0.46 ± 0.12** g | Tumor inhibition rate % (EMT breast cancer; 15 μg/mouse intraperitoneal): 47.9% | Tumor weight (g) (EMT breast cancer; 15 μg/mouse intraperitoneal): 0.64 ± 0.15* g | level of IL-2 secreted by T lymphocytes (IL-2): significantly increased | Cytotoxicity (%) MDA-MB-231 [1, 7]: 15.11 ± 6.483^ns % | Cytotoxicity (%) MDA-MB-231 [1, 8]: 12.55 ± 3.037 % | Cytotoxicity (%) MDA-MB-231 [1, 9]: 21.78 ± 3.021 % | Cytotoxicity (%) SW480 [2, 7]: 23.51 ± 1.432 % | Cytotoxicity (%) SW480 [2, 8]: 44.42 ± 5.78 % | Cytotoxicity (%) SW480 [2, 9]: 50.64 ± 2.068 % | apoptosis of T lymphocytes (T lymphocytes [6]): significantly decreased
